Common to all, as to conditions: protein: recombinant; tags: C-terminal Cys added, labeled with Alexa 488 C5-maleimide; blunt
Data set [1] concerns the target T1, EngHD (Engrailed homeodomain, DNA-binding domain) (Drosophila melanogaster, UniProt P02836 454-513).
T1 sequence: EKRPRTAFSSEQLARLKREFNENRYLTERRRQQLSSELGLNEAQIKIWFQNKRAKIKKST
Put plainly: FCS; minimal difference from N7; FCS, ~1 nM Alexa 488-EngHD with unlabeled dsDNA titrated; ionic strength 50 mM (NaCl) unless stated; buffer, pH and temperature not in the material.

For data set [2], the target named is T1, EngHD (Engrailed homeodomain, …). The experiment in a line: FCS; 50 mM ionic strength; FCS, ~1 nM Alexa 488-EngHD with unlabeled dsDNA titrated; ionic strength 50 mM (NaCl) unless stated; buffer, pH and temperature not in the material.
The target is the same in data set [3]. Described as above. The source holds these as a separate data set.
Data set [4] shares this target. The description is as above. This is another data set of the same source.
Data set [5] has the same target. Put plainly: FCS; affinity unchanged vs N8; FCS, ~1 nM Alexa 488-EngHD with unlabeled dsDNA titrated; ionic strength 50 mM (NaCl) unless stated; buffer, pH and temperature not in the material.
The target is the same in data set [6]. The experiment in a line: FCS; 50 mM ionic strength; FCS, ~1 nM Alexa 488-EngHD with unlabeled dsDNA titrated; ionic strength 50 mM (NaCl) unless stated; buffer, pH and temperature not in the material. This is another data set of the same source.
For data set [7] the target is unchanged. The data set is described as above. This is another data set of the same source.
Data set [8] has the same target. Described as above. This is another data set of the same source.

The term Kd denotes the free concentration of one partner at which half of the binding sites on the other are occupied at equilibrium, for simple one-to-one binding.

B1: 75 bp CGTGTT shuffled (m5) (dsDNA)
DNA 1: GCTCGACATAGATCTGACTGACATGCTATCAGTCTACGTGTTCAGTCTAGCTGTGCATCGATCTATACATCTAGC
DNA 2: GCTAGATGTATAGATCGATGCACAGCTAGACTGAACACGTAGACTGATAGCATGTCAGTCAGATCTATGTCGAGC
On to B1, for which the binding result in data set [1] is “binds”.

B2: 75 bp TAATTG (m2) (dsDNA)
DNA 1: GCCCGAAATAAATCTGGCCGAAAAGCCATCAATCTATAATTGCAATCTAACTGTGCCTCGGTTTATACCTCCAAC
DNA 2: GTTGGAGGTATAAACCGAGGCACAGTTAGATTGCAATTATAGATTGATGGCTTTTCGGCCAGATTTATTTCGGGC
On to B2, for which, in data set [2], the Kd is 7.44 -log10 M.

B3: 75 bp TAATTA (m1) (dsDNA)
DNA 1: GCCCGAAATAAATCTGGCCGAAAAGCCATCAATCTATAATTACAATCTAACTGTGCCTCGGTTTATACCTCCAAC
DNA 2: GTTGGAGGTATAAACCGAGGCACAGTTAGATTGTAATTATAGATTGATGGCTTTTCGGCCAGATTTATTTCGGGC
As for B3, in data set [3], the Kd was 8.43 -log10 M.

B4: 75 bp TAATTT (dsDNA)
DNA 1: GCCCGAAATAAATCTGGCCGAAAAGCCATCAATCTATAATTTCAATCTAACTGTGCCTCGGTTTATACCTCCAAC
DNA 2: GTTGGAGGTATAAACCGAGGCACAGTTAGATTGAAATTATAGATTGATGGCTTTTCGGCCAGATTTATTTCGGGC
Consider B4, for which the Kd in data set [2] is 7.79 -log10 M.

B5: 75 bp GAATTG (dsDNA)
DNA 1: GCCCGAAATAAATCTGGCCGAAAAGCCATCAATCTAGAATTGCAATCTAACTGTGCCTCGGTTTATACCTCCAAC
DNA 2: GTTGGAGGTATAAACCGAGGCACAGTTAGATTGCAATTCTAGATTGATGGCTTTTCGGCCAGATTTATTTCGGGC
In the case of B5, the binding signal in data set [4] was 19 fold lower affinity than TAATTA (N3).

B6: 75 bp CGTGTT (m4) (dsDNA)
DNA 1: GCCCGAAATAAATCTGGCCGAAAAGCCATCAATCTACGTGTTCAATCTAACTGTGCCTCGGTTTATACCTCCAAC
DNA 2: GTTGGAGGTATAAACCGAGGCACAGTTAGATTGAACACGTAGATTGATGGCTTTTCGGCCAGATTTATTTCGGGC
Regarding B6, the binding signal in data set [4] was 22 fold lower affinity than TAATTA (N3).

B7: 75 bp TATATA (dsDNA)
DNA 1: GCCCGAAATAAATCTGGCCGAAAAGCCATCAATCTATATATACAATCTAACTGTGCCTCGGTTTATACCTCCAAC
DNA 2: GTTGGAGGTATAAACCGAGGCACAGTTAGATTGTATATATAGATTGATGGCTTTTCGGCCAGATTTATTTCGGGC
For the molecule B7, in data set [4], the binding signal is ~10 fold lower affinity than TAATTA (N3).

B8: 150 bp TAATTG half original/half shuffled (m8) (dsDNA)
DNA 1: TACTCATCGATACTCAGTACTCGCGACGCATCGTGTACGCCCGAAATAAATCTGGCCGAAAAGCCATCAATCTATAATTGCAATCTAACTGTGCCTCGGTTTATACCTCCAACTGCAGTACACTGATATGACAGACAGTATGCTCACATA
DNA 2: TATGTGAGCATACTGTCTGTCATATCAGTGTACTGCAGTTGGAGGTATAAACCGAGGCACAGTTAGATTGCAATTATAGATTGATGGCTTTTCGGCCAGATTTATTTCGGGCGTACACGATGCGTCGCGAGTACTGAGTATCGATGAGTA
In the case of B8, the binding result in data set [5] was “binds”.

B9: 75 bp TAATTG high G/C (m3) (dsDNA)
DNA 1: CCCCCTCCCACCCCTCCACCCCCTCCCCTCCCCCCCTAATTGCCCTCCCCTCCCCCACCCCCTCCCCCACCCCCT
DNA 2: AGGGGGTGGGGGAGGGGGTGGGGGAGGGGAGGGCAATTAGGGGGGGAGGGGAGGGGGTGGAGGGGTGGGAGGGGG
For B9, in data set [6], the Kd was approximately 0.7 µM.

B10: 150 bp TAATTG (m6) (dsDNA)
DNA 1: TTCTTAACCAAATTGAATTCTCGCCACCGATCGTGTTCGCCCGAAATAAATCTGGCCGAAAAGCCATCAATCTATAATTGCAATCTAACTGTGCCTCGGTTTATACCTCCAACTGCCGTTCACCGAAAAGGCCGACAGTTTTCCGACAAA
DNA 2: TTTGTCGGAAAACTGTCGGCCTTTTCGGTGAACGGCAGTTGGAGGTATAAACCGAGGCACAGTTAGATTGCAATTATAGATTGATGGCTTTTCGGCCAGATTTATTTCGGGCGAACACGATCGGTGGCGAGAATTCAATTTGGTTAAGAA
With B10, the binding signal in data set [7] is ~2 fold higher affinity than 75 bp TAATTG (N2).

B11: 150 bp TAATTG shuffled (m7) (dsDNA)
DNA 1: TACTCATCGATACTCAGTACTCGCGACGCATCGTGTACGCGCGACATACATCTCACTGATACGCGATCACTCTATAATTGCACTCTATCTGTGCATCGCTCTATAGCTCTATCTGCAGTACACTGATATGACAGACAGTATGCTCACATA
DNA 2: TATGTGAGCATACTGTCTGTCATATCAGTGTACTGCAGATAGAGCTATAGAGCGATGCACAGATAGAGTGCAATTATAGAGTGATCGCGTATCAGTGAGATGTATGTCGCGCGTACACGATGCGTCGCGAGTACTGAGTATCGATGAGTA
On to B11, for which the binding result in data set [5] is reported as “binds”.

B12: 38 bp TAATTG (dsDNA)
DNA 1: AAAAGCCATCAATCTATAATTGCAATCTAACTGTGCCT
DNA 2: AGGCACAGTTAGATTGCAATTATAGATTGATGGCTTTT
With B12, the Kd in data set [8] was 7.26 -log10 M.

For the origin of these results see PMC6987225, “Eukaryotic transcription factors can track and control their target genes using DNA antennas”.
